One assay has as its target T1, KLH-(N847-S857) (Staphylococcus aureus, protein A …).
T1 construct: stretch N847-S857 of SpA5; they were put together from the eleven consecutive residues in the docking list; also called synthetic peptide N847-S857; source: synthetic peptide, coupled to keyhole limpet hemocyanin (KLH)
T1 chain: NEEQRNGFIQS
In words: ELISA; KLH-(N847-S857) coated at 2 ug/mL; Abs-9 from 2 ug/mL in PBST, diluted in half; 37 C 1 h; goat anti-human IgG Fc-HRP, OD450; SpA5 positive control, KLH negative control. Particulars: both partners purified. Background: ELISA stands for enzyme-linked immunosorbent assay.

Assay [1] addresses T2, mutant staphylococcal protein A (SpA5) (Staphylococcus aureus, recombinant …, point mutant).
T2 construct: staphylococcal protein A, mutant 'pentameric form' (SpA5), component of the recombinant five-component S. aureus vaccine; The residue numbers printed for SpA5 (E790 to N893) come from the docked model; also called antigen SpA5; pentameric form of S. aureus protein A; source: recombinant antigenic protein (vaccine component of rFSAV)
Put plainly: BLI; Octet RED96, room temperature, PBS with 0.01% Tween 20; Abs-9 (8 ug/mL) loaded on Pro A biosensor; SpA5 in double dilutions 53 uM to 6.63 uM, 600 s association, 600 s dissociation. The settings on record: both partners purified. For orientation: Biolayer interferometry detects binding as a change in optical thickness at a sensor tip.

Assay [2] has as its target T3, S. aureus protein A in MRSA252 bacterial fluid (Staphylococcus aureus MRSA252 (stand-in …, UniProt P02976, strain)).
T3 construct: staphylococcal protein A as it is present in strain MRSA252; The lysate of MRSA252 can hold only the native protein A, not the recombinant mutant SpA5; also called SpA; source: endogenous, MRSA252 ultrasonically fragmented and centrifuged, supernatant
Put plainly: affinity purification with mass spectrometry; supernatant of ultrasonically fragmented MRSA252 incubated overnight with Abs-9 (200 uL, 8 mg/mL), bound to Protein A beads 2 h, eluate to mass spectrometry. The settings on record: one partner purified.

B1: human antibody Abs-9 (antibody, V domains shown)
VH: QVQLQQWGAGLLKPSETLSLTCAVYGGSFSGYYWSWIRQPPGKGLEWIGEINHSGSTNYNPSLKSRVTISVDTSKNQFSLKLSSVTAADTAVYYCARRSYGVKPFDYWGQGTLVTVSS
VL: SSELTQDPAVSVALGQTVRITCQGDSLRTYYASWYQQKPGQAPALVIYGKNNRPSGIPDRFFGSSSGNTASLTITGAQAEDEADYYCNSRDSSGNHHPVFGGGTKLTVL
notes: germline VH3-48 gene; also called IgG-9; source: 293F cells, transfected (heavy and light chain plasmids, PEI), purified from supernatant on Protein A beads
For B1, the binding result (with KLH-(N847-S857); in assay [2]) was “binds” in each case. The dissociation constant Kd (as a rule, the constant that tells how readily two partners part at equilibrium) in assay [1] was 1.96 nM. In assay [1], the koff (in general, the rate constant with which the complex falls apart) came out at 5.63e-07 s⁻¹.

The record behind these values is PMC11743104, “Potent human antibodies against SpA5 identified by high-throughput single-cell sequencing of phase I clinical volunteers’ B cells” (iScience, 2024).
